These results are taken from the Immune Epitope Database (IEDB).

Among the targets are HLA-A*23:01; HLA-B*40:01; HLA-B*15:01; HLA-A*11:01; HLA-B*46:01; HLA-A*66:01; HLA-A*02:11; HLA-B*14:02; HLA-A*29:02; HLA-A*02:12; HLA-B*15:17; HLA-A*24:03; HLA-A*68:02; HLA-B*53:01; HLA-B*44:02; HLA-A*02:16; HLA-B*08:01; HLA-B*27:05; HLA-A*30:02; HLA-A*02:19; HLA-B*27:03; HLA-A*30:01; HLA-A*03:01; HLA-A*01:01.
Common to all, as to assay: IEDB peptide-MHC binding, purified MHC/competitive/fluorescence; filed as Kd, often an IC50 or EC50 that approximates it; ≥ and ≤ were set here for values at or beyond the usual limits of such assays
Holding throughout (details): source organism: Entamoeba histolytica HM-1:IMSS

With EVRKAIEFV, the dissociation constant (Kd) (usually the equilibrium constant for the complex coming apart) with HLA-A*23:01 is 1.3 µM; with HLA-B*40:01, at least 5 µM; in the assay with HLA-B*15:01, at least 20 µM; with HLA-A*11:01 it was at least 5 µM; with HLA-B*46:01, at least 20 µM; in the assay with HLA-A*66:01, 0.279 µM. Further, the Kd with HLA-A*02:11 is at least 20 µM; with HLA-B*14:02, at least 5 µM; with HLA-A*29:02, at least 20 µM; with HLA-A*02:12, at least 20 µM; with HLA-B*15:17, at least 20 µM; in the assay with HLA-A*24:03, at least 20 µM. The Kd is at most 0.001 µM with HLA-A*68:02; at least 5 µM with HLA-B*53:01; at least 5 µM with HLA-B*44:02; at least 20 µM in the assay with HLA-A*02:16; at least 5 µM with HLA-B*08:01; at least 5 µM with HLA-B*27:05. In addition, the dissociation constant Kd is at least 5 µM with HLA-A*30:02; at least 20 µM with HLA-A*02:19; at least 20 µM in the assay with HLA-B*27:03; at least 5 µM with HLA-A*30:01; at least 20 µM in the assay with HLA-A*03:01; at least 5 µM in the assay with HLA-A*01:01.
